Assay results: the supplement of paper PMC5998384

Experiments:
HeLa Kyoto [1] = test: solubility change mitosis vs G1/S (difference of NP-40 vs SDS log2 ratios) (log2 ratio difference); higher = more soluble in mitosis
HeLa Kyoto [2] = test: solubility in G1/S (NP-40 vs SDS abundance) (log2 ratio); higher = more soluble; conditions: cell cycle stage: G1/S
HeLa Kyoto [3] = test: thermal stability score vs G1/S (z-score of summed log2 fold changes over temperatures); higher = more thermally stable than in G1/S
HeLa Kyoto [4] = test: melting temperature (median over replicates), in situ; higher = more thermally stable
[5] = cell cycle stage: early G1 (4.5 h after nocodazole release)
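For melting temperature (median over replicates), in situ in this document: HeLa Kyoto cells synchronized by double thymidine or nocodazole block, proteins quantified by TMT10plex mass spectrometry, three independent biological replicates.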
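For solubility change mitosis vs G1/S (difference of NP-40 vs SDS log2 ratios) in this document: synchronized HeLa Kyoto cells (double thymidine block for G1/S, nocodazole release for mitosis), protein amounts in NP-40 versus SDS lysates quantified by mass spectrometry, three biological replicates.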
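For solubility in G1/S (NP-40 vs SDS abundance) in this document: HeLa Kyoto cells arrested at G1/S by double thymidine block, proteins quantified by TMT10plex mass spectrometry in mild NP-40 versus SDS extracts, three biological replicates.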
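For thermal stability score vs G1/S (z-score of summed log2 fold changes over temperatures) in this document: synchronized HeLa Kyoto cells, proteins quantified by TMT10plex mass spectrometry, three biological replicates, mitosis taken 0.5 h after nocodazole release, G1/S directly after double thymidine block.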

MTO1, sequence (chain, as listed by the source): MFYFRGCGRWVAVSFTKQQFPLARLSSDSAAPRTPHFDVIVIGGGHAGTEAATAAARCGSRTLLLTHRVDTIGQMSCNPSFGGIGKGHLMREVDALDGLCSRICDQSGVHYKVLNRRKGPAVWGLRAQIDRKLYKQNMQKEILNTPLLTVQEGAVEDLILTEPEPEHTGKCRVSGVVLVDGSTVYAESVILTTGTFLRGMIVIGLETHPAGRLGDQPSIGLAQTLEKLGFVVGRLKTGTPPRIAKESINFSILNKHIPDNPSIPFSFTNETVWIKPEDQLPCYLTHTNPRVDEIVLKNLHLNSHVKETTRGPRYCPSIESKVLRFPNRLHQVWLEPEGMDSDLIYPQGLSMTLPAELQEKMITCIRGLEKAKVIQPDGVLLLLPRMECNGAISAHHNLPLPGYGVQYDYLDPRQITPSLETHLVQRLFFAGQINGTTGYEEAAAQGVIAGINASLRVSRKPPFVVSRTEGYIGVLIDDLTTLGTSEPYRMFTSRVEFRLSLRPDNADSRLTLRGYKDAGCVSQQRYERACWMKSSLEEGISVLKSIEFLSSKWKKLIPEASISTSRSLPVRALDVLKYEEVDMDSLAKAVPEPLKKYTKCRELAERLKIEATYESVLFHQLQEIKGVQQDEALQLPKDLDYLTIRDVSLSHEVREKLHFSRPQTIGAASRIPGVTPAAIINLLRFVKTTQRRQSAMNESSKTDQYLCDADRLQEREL

For “MLVLFETSVGYAIFKVLNEKKLQEVDSLWKEFETPEKANKIVKLKHFEKFQDTAEALAAFTALMEGKINKQLKKVLKKIVKEAHEPLAVADAKLGGVIKEKLNLSCIHSPVVNELMRGIRSQMDGLIPGVEPREMAAMCLGLAHSLSRYRLKFSADKVDTMIVQAISLLDDLDKELNNYIMRCREWYGWHFPELGKIISDNLTYCKCLQKVGDRKNYASAKLSELLPEEVEAEVKAAAEISMGTEVSEEDICNILHLCTQVIEISEYRTQLYEYLQNRMMAIAPNVTVMVGELVGARLIAHAGSLLNLAKHAASTVQILGAEKALFRALKSRRDTPKYGLIYHASLVGQTSPKHKGKISRMLAAKTVLAIRYDAFGEDSSSAMGVENRAKLEARLRTLEDRGIRKISGTGKALAKTEKYEHKSEVKTYDPSGDSTLPTCSKKRKIEQVDKEDEITEKKAKKAKIKVKVEEEEEEKVAEEEETSVKKKKKRGKKKHIKEEPLSEEEPCTSTAIASPEKKKKKKKKRENED [NOP58]”, the “solubility change mitosis (log2)” value (HeLa Kyoto [1]) was 1.07, the “solubility in G1/S (log2)” value (HeLa Kyoto [2]) was -1.64 and the thermal stability score (HeLa Kyoto [3]; [5]) was -0.671. The thermal stability score (HeLa Kyoto [3]; cell cycle stage: mitosis) was -1.23, the melting temperature (HeLa Kyoto [4]; cell cycle stage: G1/S) was 52.5 °C and the melting temperature (HeLa Kyoto [4]; cell cycle stage: mitosis) was 51.5 °C.

For “MGGKLSKKKKGYNVNDEKAKEKDKKAEGAATEEEGTPKESEPQAAAEPAEAKEGKEKPDQDAEGKAEEKEGEKDAAAAKEEAPKAEPEKTEGAAEAKAEPPKAPEQEQAAPGPAAGGEAPKAAEAAAAPAESAAPAAGEEPSKEEGEPKKTEAPAAPAAQETKSDGAPASDSKPGSSEAAPSSKETPAATEAPSSTPKAQGPAASAEEPKPVEAPAANSDQTVTVKE [BASP1]”, the “solubility change mitosis (log2)” value (HeLa Kyoto [1]) was 0.98, the “solubility in G1/S (log2)” value (HeLa Kyoto [2]) was -1.08 and the thermal stability score (HeLa Kyoto [3]; [5]) was -5.91. For the same substance, the thermal stability score (HeLa Kyoto [3]; cell cycle stage: mitosis) was -9.69 and the melting temperature (HeLa Kyoto [4]; cell cycle stage: G1/S) was 48.2 °C.

With “MATFISVQLKKTSEVDLAKPLVKFIQQTYPSGGEEQAQYCRAAEELSKLRRAAVGRPLDKHEGALETLLRYYDQICSIEPKFPFSENQICLTFTWKDAFDKGSLFGGSVKLALASLGYEKSCVLFNCAALASQIAAEQNLDNDEGLKIAAKHYQFASGAFLHIKETVLSALSREPTVDISPDTVGTLSLIMLAQAQEVFFLKATRDKMKDAIIAKLANQAADYFGDAFKQCQYKDTLPKEVFPVLAAKHCIMQANAEYHQSILAKQQKKFGEEIARLQHAAELIKTVASRYDEYVNVKDFSDKINRALAAAKKDNDFIYHDRVPDLKDLDPIGKATLVKSTPVNVPISQKFTDLFEKMVPVSVQQSLAAYNQRKADLVNRSIAQMREATTLANGVLASLNLPAAIEDVSGDTVPQSILTKSRSVIEQGGIQTVDQLIKELPELLQRNREILDESLRLLDEEEATDNDLRAKFKERWQRTPSNELYKPLRAEGTNFRTVLDKAVQADGQVKECYQSHRDTIVLLCKPEPELNAAIPSANPAKTMQGSEVVNVLKSLLSNLDEVKKEREGLENDLKSVNFDMTSKFLTALAQDGVINEEALSVTELDRVYGGLTTKVQESLKKQEGLLKNIQVSHQEFSKMKQSNNEANLREEVLKNLATAYDNFVELVANLKEGTKFYNELTEILVRFQNKCSDIVFARKTERDELLKDLQQSIAREPSAPSIPTPAYQSSPAGGHAPTPPTPAPRTMPPTKPQPPARPPPPVLPANRAPSATAPSPVGAGTAAPAPSQTPGSAPPPQAQGPPYPTYPGYPGYCQMPMPMGYNPYAYGQYNMPYPPVYHQSPGQAPYPGPQQPSYPFPQPPQQSYYPQQ [PDCD6IP]” the “solubility change mitosis (log2)” value (HeLa Kyoto [1]) was -0.0427, the “solubility in G1/S (log2)” value (HeLa Kyoto [2]) was 0.366 and the thermal stability score (HeLa Kyoto [3]; [5]) was -2.03. The thermal stability score (HeLa Kyoto [3]; cell cycle stage: mitosis) was -1.7, the melting temperature (HeLa Kyoto [4]; cell cycle stage: G1/S) was 48.7 °C and the melting temperature (HeLa Kyoto [4]; cell cycle stage: mitosis) was 48.6 °C.

With MTO1 the “solubility change mitosis (log2)” value (HeLa Kyoto [1]) was -0.0427, the “solubility in G1/S (log2)” value (HeLa Kyoto [2]) was -0.108 and the thermal stability score (HeLa Kyoto [3]; [5]) was -0.222. For the same substance, the thermal stability score (HeLa Kyoto [3]; cell cycle stage: mitosis) was 1.63, the melting temperature (HeLa Kyoto [4]; cell cycle stage: G1/S) was 50 °C and the melting temperature (HeLa Kyoto [4]; cell cycle stage: mitosis) was 50.4 °C.

For “MSLICSISNEVPEHPCVSPVSNHVYERRLIEKYIAENGTDPINNQPLSEEQLIDIKVAHPIRPKPPSATSIPAILKALQDEWDAVMLHSFTLRQQLQTTRQELSHALYQHDAACRVIARLTKEVTAAREALATLKPQAGLIVPQAVPSSQPSVVGAGEPMDLGELVGMTPEIIQKLQDKATVLTTERKKRGKTVPEELVKPEELSKYRQVASHVGLHSASIPGILALDLCPSDTNKILTGGADKNVVVFDKSSEQILATLKGHTKKVTSVVFHPSQDLVFSASPDATIRIWSVPNASCVQVVRAHESAVTGLSLHATGDYLLSSSDDQYWAFSDIQTGRVLTKVTDETSGCSLTCAQFHPDGLIFGTGTMDSQIKIWDLKERTNVANFPGHSGPITSIAFSENGYYLATAADDSSVKLWDLRKLKNFKTLQLDNNFEVKSLIFDQSGTYLALGGTDVQIYICKQWTEILHFTEHSGLTTGVAFGHHAKFIASTGMDRSLKFYSL [PRPF19]”, the “solubility change mitosis (log2)” value (HeLa Kyoto [1]) was 0.214, the “solubility in G1/S (log2)” value (HeLa Kyoto [2]) was -0.473 and the thermal stability score (HeLa Kyoto [3]; [5]) was -0.506. The thermal stability score (HeLa Kyoto [3]; cell cycle stage: mitosis) was -3.39, the melting temperature (HeLa Kyoto [4]; cell cycle stage: G1/S) was 56.5 °C and the melting temperature (HeLa Kyoto [4]; cell cycle stage: mitosis) was 54 °C.

For “MGVWLNKDDYIRDLKRIILCFLIVYMAILVGTDQDFYSLLGVSKTASSREIRQAFKKLALKLHPDKNPNNPNAHGDFLKINRAYEVLKDEDLRKKYDKYGEKGLEDNQGGQYESWNYYRYDFGIYDDDPEIITLERREFDAAVNSGELWFVNFYSPGCSHCHDLAPTWRDFAKEVDGLLRIGAVNCGDDRMLCRMKGVNSYPSLFIFRSGMAPVKYHGDRSKESLVSFAMQHVRSTVTELWTGNFVNSIQTAFAAGIGWLITFCSKGGDCLTSQTRLRLSGMLDGLVNVGWMDCATQDNLCKSLDITTSTTAYFPPGATLNNKEKNSILFLNSLDAKEIYLEVIHNLPDFELLSANTLEDRLAHHRWLLFFHFGKNENSNDPELKKLKTLLKNDHIQVGRFDCSSAPDICSNLYVFQPSLAVFKGQGTKEYEIHHGKKILYDILAFAKESVNSHVTTLGPQNFPANDKEPWLVDFFAPWCPPCRALLPELRRASNLLYGQLKFGTLDCTVHEGLCNMYNIQAYPTTVVFNQSNIHEYEGHHSAEQILEFIEDLMNPSVVSLTPTTFNELVTQRKHNEVWMVDFYSPWCHPCQVLMPEWKRMARTLTGLINVGSIDCQQYHSFCAQENVQRYPEIRFFPPKSNKAYHYHSYNGWNRDAYSLRIWGLGFLPQVSTDLTPQTFSEKVLQGKNHWVIDFYAPWCGPCQNFAPEFELLARMIKGKVKAGKVDCQAYAQTCQKAGIRAYPTVKFYFYERAKRNFQEEQINTRDAKAIAALISEKLETLRNQGKRNKDEL [DNAJC10]”, the “solubility change mitosis (log2)” value (HeLa Kyoto [1]) was -0.125, the “solubility in G1/S (log2)” value (HeLa Kyoto [2]) was -0.000819 and the thermal stability score (HeLa Kyoto [3]; [5]) was 3.17. For the same substance, the thermal stability score (HeLa Kyoto [3]; cell cycle stage: mitosis) was 4.65, the melting temperature (HeLa Kyoto [4]; cell cycle stage: G1/S) was 54.7 °C and the melting temperature (HeLa Kyoto [4]; cell cycle stage: mitosis) was 55.4 °C.
